Laboratory results taken from the supplement of paper PMC5998384.

What was measured:
[1] = tested on: HeLa Kyoto; assay: solubility change mitosis vs G1/S (difference of NP-40 vs SDS log2 ratios) (log2 ratio difference); higher = more soluble in mitosis
[2] = tested on: HeLa Kyoto; assay: solubility in G1/S (NP-40 vs SDS abundance) (log2 ratio); higher = more soluble; settings: cell cycle stage: G1/S
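For solubility change mitosis vs G1/S (difference of NP-40 vs SDS log2 ratios) in this document: synchronized HeLa Kyoto cells (double thymidine block for G1/S, nocodazole release for mitosis), protein amounts in NP-40 versus SDS lysates quantified by mass spectrometry, three biological replicates.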
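For solubility in G1/S (NP-40 vs SDS abundance) in this document: HeLa Kyoto cells arrested at G1/S by double thymidine block, proteins quantified by TMT10plex mass spectrometry in mild NP-40 versus SDS extracts, three biological replicates.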

Sequence of MAP4K5 (chain, as listed by the source): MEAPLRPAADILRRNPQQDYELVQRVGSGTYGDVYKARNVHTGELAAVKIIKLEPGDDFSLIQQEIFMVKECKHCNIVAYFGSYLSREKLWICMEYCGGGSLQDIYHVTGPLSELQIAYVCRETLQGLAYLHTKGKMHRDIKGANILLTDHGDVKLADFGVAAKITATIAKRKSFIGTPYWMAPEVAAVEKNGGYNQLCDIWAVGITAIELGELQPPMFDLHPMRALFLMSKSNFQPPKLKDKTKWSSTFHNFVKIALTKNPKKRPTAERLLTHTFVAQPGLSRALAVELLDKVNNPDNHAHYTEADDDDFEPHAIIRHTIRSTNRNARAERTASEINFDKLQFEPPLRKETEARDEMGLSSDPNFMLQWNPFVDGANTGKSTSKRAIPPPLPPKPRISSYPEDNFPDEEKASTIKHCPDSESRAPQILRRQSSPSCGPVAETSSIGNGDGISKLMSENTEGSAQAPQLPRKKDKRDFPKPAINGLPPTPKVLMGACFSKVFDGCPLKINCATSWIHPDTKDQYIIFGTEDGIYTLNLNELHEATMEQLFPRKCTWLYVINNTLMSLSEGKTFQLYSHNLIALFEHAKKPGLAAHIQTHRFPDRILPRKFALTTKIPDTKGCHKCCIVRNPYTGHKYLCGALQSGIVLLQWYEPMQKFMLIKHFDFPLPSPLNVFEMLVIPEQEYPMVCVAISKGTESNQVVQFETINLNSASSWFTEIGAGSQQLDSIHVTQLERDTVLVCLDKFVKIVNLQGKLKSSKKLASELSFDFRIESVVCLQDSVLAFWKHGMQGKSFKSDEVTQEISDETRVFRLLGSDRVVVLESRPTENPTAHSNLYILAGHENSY

| Substance | solubility change mitosis (log2) [1] | solubility in G1/S (log2) [2] |
| --- | --- | --- |
| MVAMAEAEAGVAVEVRGLPPAVPDELLTLYFENRRRSGGGPVLSWQRLGCGGVLTFREPADAERVLAQADHELHGAQLSLRPAPPRAPARLLLQGLPPGTTPQRLEQHVQALLRASGLPVQPCCALASPRPDRALVQLPKPLSEADVRVLEEQAQNLGLEGTLVSLARVPQARAVRVVGDGASVDLLLLELYLENERRSGGGPLEDLQRLPGPLGTVASFQQWQVAERVLQQEHRLQGSELSLVPHYDILEPEELAENTSGGDHPSTQGPRATKHALLRTGGLVTALQGAGTVTMGSGEEPGQSGASLRTGPMVQGRGIMTTGSGQEPGQSGTSLRTGPMGSLGQAEQVSSMPMGSLEHEGLVSLRPVGLQEQEGPMSLGPVGSAGPVETSKGLLGQEGLVEIAMDSPEQEGLVGPMEITMGSLEKAGPVSPGCVKLAGQEGLVEMVLLMEPGAMRFLQLYHEDLLAGLGDVALLPLEGPDMTGFRLCGAQASCQAAEEFLRSLLGSISCHVLCLEHPGSARFLLGPEGQHLLQGLEAQFQCVFGTERLATATLDTGLEEVDPTEALPVLPGNAHTLWTPDSTGGDQEDVSLEEVRELLATLEGLDLDGEDWLPRELEEEGPQEQPEEEVTPGHEEEEPVAPSTVAPRWLEEEAALQLALHRSLEPQGQVAEQEEAAALRQALTLSLLEQPPLEAEEPPDGGTDGKAQLVVHSAFEQDVEELDRALRAALEVHVQEETVGPWRRTLPAELRARLERCHGVSVALRGDCTILRGFGAHPARAARHLVALLAGPWDQSLAFPLAASGPTLAGQTLKGPWNNLERLAENTGEFQEVVRAFYDTLDAARSSIRVVRVERVSHPLLQQQYELYRERLLQRCERRPVEQVLYHGTTAPAVPDICAHGFNRSFCGRNATVYGKGVYFARRASLSVQDRYSPPNADGHKAVFVARVLTGDYGQGRRGLRAPPLRGPGHVLLRYDSAVDCICQPSIFVIFHDTQALPTHLITCEHVPRASPDDPSGLPGRSPDT [PARP10] | 0.0134 | 0.14 |
| MASKKVCIVGSGNWGSAIAKIVGGNAAQLAQFDPRVTMWVFEEDIGGKKLTEIINTQHENVKYLPGHKLPPNVVAVPDVVQAAEDADILIFVVPHQFIGKICDQLKGHLKANATGISLIKGVDEGPNGLKLISEVIGERLGIPMSVLMGANIASEVADEKFCETTIGCKDPAQGQLLKELMQTPNFRITVVQEVDTVEICGALKNVVAVGAGFCDGLGFGDNTKAAVIRLGLMEMIAFAKLFCSGPVSSATFLESCGVADLITTCYGGRNRKVAEAFARTGKSIEQLEKELLNGQKLQGPETARELYSILQHKGLVDKFPLFMAVYKVCYEGQPVGEFIHCLQNHPEHM [GPD1] | 0.00396 | 0.278 |
| MSCTIEKALADAKALVERLRDHDDAAESLIEQTTALNKRVEAMKQYQEEIQELNEVARHRPRSTLVMGIQQENRQIRELQQENKELRTSLEEHQSALELIMSKYREQMFRLLMASKKDDPGIIMKLKEQHSKIDMVHRNKSEGFFLDASRHILEAPQHGLERRHLEANQNELQAHVDQITEMAAVMRKAIEIDEQQGCKEQERIFQLEQENKGLREILQITRESFLNLRKDDASESTSLSALVTNSDLSLRKS [FGFR1OP2] | 0.0581 | 0.209 |
| MASVRIREAKEGDCGDILRLIRELAEFEKLSDQVKISEEALRADGFGDNPFYHCLVAEILPAPGKLLGPCVVGYGIYYFIYSTWKGRTIYLEDIYVMPEYRGQGIGSKIIKKVAEVALDKGCSQFRLAVLDWNQRAMDLYKALGAQDLTEAEGWHFFCFQGEATRKLAGK [SAT2] | -0.259 | 0.139 |
| MAAAAEERMAEEGGGGQGDGGSSLASGSTQRQPPPPAPQHPQPGSQALPAPALAPDQLPQNNTLVALPIVAIENILSFMSYDEISQLRLVCKRMDLVCQRMLNQGFLKVERYHNLCQKQVKAQLPRRESERRNHSLARHADILAAVETRLSLLNMTFMKYVDSNLCCFIPGKVIDEIYRVLRYVNSTRAPQRAHEVLQELRDISSMAMEYFDEKIVPILKRKLPGSDVSGRLMGSPPVPGPSAALTTMQLFSKQNPSRQEVTKLQQQVKTNGAGVTVLRREISELRTKVQEQQKQLQDQDQKLLEQTQIIGEQNARLAELERKLREVMESAVGNSSGSGQNEESPRKRKKATEAIDSLRKSKRLRNRK [FBXO28] | 0.262 | 0.375 |
| MGDWMTVTDPGLSSESKTISQYTSETKMSPSSLYSQQVLCSSIPLSKNVHSFFSAFCTEDNIEQSISYLDQELTTFGFPSLYEESKGKETKRELNIVAVLNCMNELLVLQRKNLLAQENVETQNLKLGSDMDHLQSCYSKLKEQLETSRREMIGLQERDRQLQCKNRNLHQLLKNEKDEVQKLQNIIASRATQYNHDMKRKEREYNKLKERLHQLVMNKKDKKIAMDILNYVGRADGKRGSWRTGKTEARNEDEMYKILLNDYEYRQKQILMENAELKKVLQQMKKEMISLLSPQKKKPRERVDDSTGTVISDVEEDAGELSRESMWDLSCETVREQLTNSIRKQWRILKSHVEKLDNQVSKVHLEGFNDEDVISRQDHEQETEKLELEIQQCKEMIKTQQQLLQQQLATAYDDDTTSLLRDCYLLEEKERLKEEWSLFKEQKKNFERERRSFTEAAIRLGLERKAFEEERASWLKQQFLNMTTFDHQNSENVKLFSAFSGSSDWDNLIVHSRQPQKKPHSVSNGSPVCMSKLTKSLPASPSTSDFCQTRSCISEHSSINVLNITAEEIKPNQVGGECTNQKWSVASRPGSQEGCYSGCSLSYTNSHVEKDDLP [SSX2IP] | 0.187 | -0.387 |
| MAP4K5 | -0.0819 | 0.172 |
| MDFREILMIASKGQGVNNVPKRYSLAVGPPKKDPKVKGVQSAAVQAFLKRKEEELRRKALEEKRRKEELVKKRIELKHDKKARAMAKRTKDNFHGYNGIPIEEKSKKRQATESHTSQGTDREYEMEEENEFLEYNHAESEQEYEEEQEPPKVESKPKVPLKSAPPPMNFTDLLRLAEKKQFEPVEIKVVKKSEERPMTAEELREREFLERKHRRKKLETDGKLPPTVSKKAPSQKESVGTKLSKGSGDRHPSSKGMPLPHAEKKSRPSMANEKHLALSSSKSMPGERIKAGSGNSSQPSLREGHDKPVFNGAGKPHSSTSSPSVPKTSASRTQKSAVEHKAKKSLSHPSHSRPGPMVTPHNKAKSPGVRQPGSSSSSAPGQPSTGVARPTVSSGPVPRRQNGSSSSGPERSISGSKKPTNDSNPSRRTVSGTCGPGQPASSSGGPGRPISGSVSSARPLGSSRGPGRPVSSPHELRRPVSGLGPPGRSVSGPGRSISGSIPAGRTVSNSVPGRPVSSLGPGQTVSSSGPTIKPKCTVVSETISSKNIISRSSNGQMNGMKPPLSGYRAAQGPQRLPFPTGYKRQREYEEEDDDDDEYDSEMEDFIEDEGEPQEEISKHIREIFGYDRKKYKDESDYALRYMESSWKEQQKEEAKSLRLGMQEDLEEMRREEEEMQRRRAKKLKRR [SPTY2D1] | 0.873 | -1.47 |
| MDEDGGGEGGGVPEDLSLEEREELLDIRRRKKELIDDIERLKYEIAEVMTEIDNLTSVEESKTTQRNKQIAMGRKKFNMDPKKGIQFLIENDLLQSSPEDVAQFLYKGEGLNKTVIGDYLGERDEFNIKVLQAFVELHEFADLNLVQALRQFLWSFRLPGEAQKIDRMMEAFASRYCLCNPGVFQSTDTCYVLSFAIIMLNTSLHNHNVRDKPTAERFIAMNRGINEGGDLPEELLRNLYESIKNEPFKIPEDDGNDLTHTFFNPDREGWLLKLGGGRVKTWKRRWFILTDNCLYYFEYTTDKEPRGIIPLENLSIREVEDPRKPNCFELYNPSHKGQVIKACKTEADGRVVEGNHVVYRISAPSPEEKEEWMKSIKASISRDPFYDMLATRKRRIANKK [CYTH3] | -0.11 | 0.26 |
| MEKLYSENEGMASNQGKMENEEQPQDERKPEVTCTLEDKKLENEGKTENKGKTGDEEMLKDKGKPESEGEAKEGKSEREGESEMEGGSEREGKPEIEGKPESEGEPGSETRAAGKRPAEDDVPRKAKRKTNKGLAHYLKEYKEAIHDMNFSNEDMIREFDNMAKVQDEKRKSKQKLGAFLWMQRNLQDPFYPRGPREFRGGCRAPRRDIEDIPYV [TCEAL4] | 0.452 | 0.49 |
| MSYMLPHLHNGWQVDQAILSEEDRVVVIRFGHDWDPTCMKMDEVLYSIAEKVKNFAVIYLVDITEVPDFNKMYELYDPCTVMFFFRNKHIMIDLGTGNNNKINWAMEDKQEMVDIIETVYRGARKGRGLVVSPKDYSTKYRY [TXNL4A] | 0.224 | -0.625 |
| ASNSD1 | 0.0506 | -0.0495 |
| MQVSSLNEVKIYSLSCGKSLPEWLSDRKKRALQKKDVDVRRRIELIQDFEMPTVCTTIKVSKDGQYILATGTYKPRVRCYDTYQLSLKFERCLDSEVVTFEILSDDYSKIVFLHNDRYIEFHSQSGFYYKTRIPKFGRDFSYHYPSCDLYFVGASSEVYRLNLEQGRYLNPLQTDAAENNVCDINSVHGLFATGTIEGRVECWDPRTRNRVGLLDCALNSVTADSEINSLPTISALKFNGALTMAVGTTTGQVLLYDLRSDKPLLVKDHQYGLPIKSVHFQDSLDLILSADSRIVKMWNKNSGKIFTSLEPEHDLNDVCLYPNSGMLLTANETPKMGIYYIPVLGPAPRWCSFLDNLTEELEENPESTVYDDYKFVTKKDLENLGLTHLIGSPFLRAYMHGFFMDIRLYHKVKLMVNPFAYEEYRKDKIRQKIEETRAQRVQLKKLPKVNKELALKLIEEEEEKQKSTWKKKVKSLPNILTDDRFKVMFENPDFQVDEESEEFRLLNPLVSKISEKRKKKLRLLEQQELREKEEEEEPEGKPSDAESSESSDDEKAWVEEVRKQRRLLQQEEKVKRQERLKEDQQTVLKPQFYEIKAGEEFRSFKDSATKQKLMNKTLEDRLKIEAKNGTLSVSDTTVGSKQLTFTLKRSEQQKKQQEAEKLHRQERKRLRRSAGHLKSRHKRGRSFH [NOL10] | 0.53 | -1.88 |
| MKPVHERSQECLPPKKRDLPVTSEDMGRTTSCSTNHTPSSDASEWSRGVVVAGQSQAGARVSLGGDGAEAITGLTVDQYGMLYKVAVPPATFSPTGLPSVVNMSPLPPTFNVASSLIQHPGIHYPPLHYAQLPSTSLQFIGSPYSLPYAVPPNFLPSPLLSPSANLATSHLPHFVPYASLLAEGATPPPQAPSPAHSFNKAPSATSPSGQLPHHSSTQPLDLAPGRMPIYYQMSRLPAGYTLHETPPAGASPVLTPQESQSALEAAAANGGQRPRERNLVRRESEALDSPNSKGEGQGLVPVVECVVDGQLFSGSQTPRVEVAAPAHRGTPDTDLEVQRVVGALASQDYRVVAAQRKEEPSPLNLSHHTPDHQGEGRGSARNPAELAEKSQARGFYPQSHQEPVKHRPLPKAMVVANGNLVPTGTDSGLLPVGSEILVASSLDVQARATFPDKEPTPPPITSSHLPSHFMKGAIIQLATGELKRVEDLQTQDFVRSAEVSGGLKIDSSTVVDIQESQWPGFVMLHFVVGEQQSKVSIEVPPEHPFFVYGQGWSSCSPGRTTQLFSLPCHRLQVGDVCISISLQSLNSNSVSQASCAPPSQLGPPRERPERTVLGSRELCDSEGKSQPAGEGSRVVEPSQPESGAQACWPAPSFQRYSMQGEEARAALLRPSFIPQEVKLSIEGRSNAGK [ATXN1L] | -0.12 | 0.172 |
